This is an account of results in patent US11155586B2, “Cystine knot scaffold platform” (Genentech, Inc., priority 2015, dated 2021).

Positions of bridges follow the written chain, without caps; N, C: chain ends. Non-standard residues stand in square brackets, D forms with d. Residues, ends and D or L forms follow the SMILES beside them. 1Nal = N[C@@H](Cc1cccc2ccccc12)C(=O)O

One experiment concerns the target T1, hVEGF-A (Homo sapiens, UniProt P15692).
T1 sequence (P15692 207-395): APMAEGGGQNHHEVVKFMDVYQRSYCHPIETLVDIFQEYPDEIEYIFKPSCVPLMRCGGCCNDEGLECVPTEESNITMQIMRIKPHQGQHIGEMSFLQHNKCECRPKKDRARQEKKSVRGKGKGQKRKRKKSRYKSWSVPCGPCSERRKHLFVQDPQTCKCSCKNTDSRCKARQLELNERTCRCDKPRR
Put plainly: KDR-CHO VEGF assay to determine cellular IC50 (VEGF mediated Tyr phosphorylation of KDR). Format: cell-based. The conditions noted are these: Table 38, from cellular IC50. On the procedure: KDR-CHO cells (CHO cells stably transfected with gD tagged-KDR) were grown in cell growth medium (DMEM/Ham's F-12, 10% diafiltered FBS (GIBCO catalog no. 26400), 25 mM HEPES, 2 mM L-GLUTAMAX™). For VEGF stimulation assay, 5×10^4 cells/well were plated in 100 μl of cell plating medium (DMEM/Ham's F-12, 0.2% BSA, 0.25% diafiltered FBS, 25 mM HEPES, 2 mM L-GLUTAMAX™) in 96-well tissue culture plate and incubated at 37° C. overnight. The medium was replaced with 100 I1 of serum-free cell stimulation medium (DMEM/Ham's F-12, 0.5% BSA, 25 mM HEPES) and cells were incubated at 37° C. for 2 hr. One hour before stimulation, the medium was replaced with 50 I1 of serum-free cell stimulation medium. Concurrently, VEGF (50 ng/ml for hVEGF, 100 ng/ml for mVEGF and rVEGF) was pre-incubated with titrated amount of CKP or anti-VEGF in 50 μl of serum-free cell stimulation medium at 37° C. for 1 hour and added to the cells. The cells were stimulated for 15 min at 37 C and the medium is removed. The cells were lysed with 130 I1 of ice-cold cell lysis buffer (150 mM NaCl, 50 mM HEPES, 0.5% Triton-X 100, HALT protease and phosphatase inhibitor cocktail (ThermoFisher Scientific, Inc. catalog no. 78444), 5 mM EDTA). VEGF mediated Tyr phosphorylation of KDR was determined by ELISA-based assay. Briefly, MAXISORP™ 96 well plates (ThermoFisher Scientific, Inc. catalog no. 439454) were coated with 100 I1 of anti-gD antibody diluted in PBS (1 μg/ml) at 4° C. overnight and washed three times with washing buffer (PBS, 0.05% TWEEN®20, pH 7.4). The plates were blocked with 300 I1 of blocking buffer (PBS, 0.5% BSA) at room temperature for 1 hour followed by washing three times with washing buffer. The above KDR-CHO cell lysate (100 μl) was added to each well and incubated at room temperature for 2 hours. The plates were washed four times with washing buffer followed by incubation with 100 I1 of 0.5 μg/ml biotin-conjugated anti-phosphotyrosine (clone 4G10, Millipore catalog no. 16-103) in blocking buffer at room temperature for 2 hours. After washing four times, the plates were incubated with 100 I1 of HRP-conjugated streptavidin in blocking buffer at room temperature for 30 min. After washing four times, the plates were developed with 100 I1 of TMB substrate (BD Biosciences) at room temperature for 20-30 min and stopped by addition of 50 μl of H2SO4 solution. The optical density of each well was determined using a microplate reader set to 450 nm.
For `CC[C@H](C)[C@@H]1NC(=O)[C@H](CC(N)=O)NC(=O)[C@@H](NC(=O)CN)CSSC[C@@H](C(=O)N[C@H](C(=O)N[C@H]2CSSC[C@@H](C(=O)NCC(=O)O)NC(=O)[C@H](CO)NC(=O)[C@H](CCC(N)=O)NC(=O)[C@H](Cc3ccc(O)cc3)NC(=O)[C@H](Cc3ccc(O)cc3)NC(=O)[C@H](CCC(N)=O)NC2=O)C(C)C)NC(=O)CNC(=O)[C@H](C)NC(=O)[C@H](CC(C)C)NC(=O)[C@@H]2CSSC[C@H](NC(=O)CNC(=O)[C@H](Cc3cccc4ccccc34)NC(=O)[C@H](Cc3ccccc3)NC(=O)[C@@H]3CCCN3C(=O)[C@H](CC(C)C)NC(=O)[C@H](CCSC)NC1=O)C(=O)NCC(=O)N[C@@H](CCCNC(=N)N)C(=O)N[C@@H](CC(=O)O)C(=O)N[C@@H](Cc1ccccc1)C(=O)N[C@@H](CCC(=O)O)C(=O)N2` [9.54.90.Naph1] (H-GCNIMLPF[1Nal]GCGRDFECLAGCVCQYYQSCG-OH; disulfide 2-21, 11-17, 23-29; N-terminus and C-terminus assumed), the “FOLD IMPROVEMENT RELATIVE TO VARIANT 9.54.90” value is on record as 0.24.
In the case of `CCCC[C@@H]1NC(=O)[C@H]([C@@H](C)CC)NC(=O)[C@H](CC(N)=O)NC(=O)[C@@H](NC(=O)CN)CSSC[C@@H](C(=O)N[C@H](C(=O)N[C@H]2CSSC[C@@H](C(=O)NCC(=O)O)NC(=O)[C@H](CO)NC(=O)[C@H](CCC(N)=O)NC(=O)[C@H](Cc3ccc(O)cc3)NC(=O)[C@H](Cc3ccc(O)cc3)NC(=O)[C@H](CCC(N)=O)NC2=O)C(C)C)NC(=O)CNC(=O)[C@H](C)NC(=O)[C@H](CC(C)C)NC(=O)[C@@H]2CSSC[C@H](NC(=O)CNC(=O)[C@H](Cc3c[nH]c4ccccc34)NC(=O)[C@H](Cc3ccccc3)NC(=O)[C@@H]3CCCN3C(=O)[C@H](CC(C)C)NC1=O)C(=O)NCC(=O)N[C@@H](CCCNC(=N)N)C(=O)N[C@@H](CC(=O)O)C(=O)N[C@@H](Cc1ccccc1)C(=O)N[C@@H](CCC(=O)O)C(=O)N2` [9.54.90.M5.Nle], the “FOLD IMPROVEMENT RELATIVE TO VARIANT 9.54.90” value was found to be 0.69.

The next experiment has as its target T2, hVEGF-A (8-109) (Homo sapiens, UniProt P15692).
T2 sequence (P15692 214-315): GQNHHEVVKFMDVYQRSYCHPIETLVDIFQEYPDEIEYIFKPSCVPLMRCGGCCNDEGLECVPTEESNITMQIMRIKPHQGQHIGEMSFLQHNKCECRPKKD
The experiment can be described thus: Phage competition ELISA. The experiment is classed as binding. As to conditions: phage competition ELISA, FIG. 15. (In general: ELISA stands for enzyme-linked immunosorbent assay.)
For “GCNIMLPFWGCGQSFECLAGCICQYYQSCGLS [9.54.1-42]”, the “improvement of binding affinity for hVEGF-A (8-109) compared to parent clone” value was “approximately 10 fold”.
The same measure, in the same setting: next, “GCNIMLPFWGCGQSFECLAGCICQYYQSCGGS [9.54.1-63]”: “approximately 10 fold”; “GCNIMLPFWGCGQSFECLAGCICQYYQSCGIA [9.54.1-2]”: “approximately 10 fold”.
